# Measured values reported in the supplement of paper PMC9732359.
# ± gives the uncertainty stated by the source.
# Assay: protein stability index of a GFP-peptide fusion (yeast GPS) (PSI 1-4); higher = more stable; sorted into four equal gates, so the index is relative within each strain
# Settings: san1∆
# Outline: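 Yeast carrying a pooled library were grown to mid-log phase in leucine-free medium. Each library plasmid expresses Cherry and has a tiled 17-residue yeast protein peptide fused downstream of GFP. Cells were sorted into four equal gates by GFP/Cherry ratio, and plasmids from each gate were PCR-amplified, Illumina-sequenced and assigned to strains by barcode. Summing, across gates, the read frequency times the gate number gave each peptide's protein stability index.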
row,Sequence,protein stability index
1,SAYVKAFYQKGNKLVEL [SMC1],2.12 ± 0.097
2,SDAEEEEGEYKNAANTE [ISW2],3 ± 0.17
3,SDDKTRQLSPHTLMSFA [PRE1],2.26 ± 0.082
4,SDEERDDEDDEHNPTIV [AAR2],3.09 ± 0.071
5,SDERAKLELINRYAYVL [LRP1],2.79 ± 0.11
6,SDLVNQGIIYAKVNRPA [RPN5],2.84 ± 0.17
7,SDNKKRSGSNAAASLPS [RPC82],2.86 ± 0.042
8,SEAEYSKDIETLKKEWL [YIL149C/MLP2],3.13 ± 0.051
9,SEHFLYLAKELNLTGPK [RPN1],2.35 ± 0.19
10,SEINEILARNDEEMAVL [SNF2],3 ± 0.17
11,SELAGDEELEAEQIDVF [PRP8],3.07 ± 0.16
12,SELQPQNRSLQEHNIQD [SNF2],3.08 ± 0.04
13,SENEDTKDLLSKSPSEW [CSE2],3.15 ± 0.051
14,SENQRQIFCVFSGKGVH [GRR1],2.62 ± 0.053
15,SESDLDEDKNFPRSRSR [ESC2],3.32 ± 0.059
16,SEYNFLEGSVSLPRFSK [DIS3],3.11 ± 0.05
17,SFELKEEDISDLWNNFG [RRP6],2.47 ± 0.091
18,SFILYYRRALQSSESFD [YML103C/NUP188],1.98 ± 0.072
19,SFKKIIKFLLTFIDKER [YCS4],1.19 ± 0.14
20,SFLDRKRAKEFITTLLK [SIN4],2.21 ± 0.061
21,SFLGEAKSMAFLKEVLS [YML103C/NUP188],2.48 ± 0.18
22,SFLMRQFTRFFLLVPSK [ECM29],1.75 ± 0.12
23,SFNESQRGEDDLTFKLA [RPO21],3.54 ± 0.15
24,SFTQGELNDLKWGRNQP [YMR129W/POM152],3.14 ± 0.091
25,SFTSQGTISIQLKNGLL [MTR3],2.69 ± 0.055

row,Sequence,protein stability index
1,SFVGDYMHDTELNYFVG [GRR1],3.35 ± 0.061
2,SGDKEATAPLIQRKNKK [RPN8],3.25 ± 0.095
3,SGDREVQRTMLELLNQL [RPT5],3.12 ± 0.12
4,SGELLQGIVRVYSKQAT [MCD1],2.22 ± 0.058
5,SGNEMPPQDAEGWFYKR [RPS19A],3.25 ± 0.13
6,SGNLPLNELSAKDKEIY [RPN13],3.27 ± 0.044
7,SGQLNFEIDGDVIHFED [PCI8],2.53 ± 0.075
8,SGTPTLKKNIEPKKDKE [YOR098C/NUP1],2.71 ± 0.25
9,SGVKNDILQSLSGGGHD [CDC53],2.71 ± 0.068
10,SGWGAVVYIIKKDEVVK [PUP3],3.33 ± 0.052
11,SHFDYNTLEFIIEQLSI [YCG1],2.18 ± 0.14
12,SHIESDSTSHNNGSSDK [MED1],2.84 ± 0.042
13,SHLVVPYCPIASITGTG [YMR129W/POM152],1.33 ± 0.1
14,SHLYKARLDGHDFLFNT [RPN14],3.13 ± 0.07
15,SHTSLVKIGKFIPHGLK [SRB8],1.97 ± 0.084
16,SIAEEIPIAIVLKACGI [RET1],1.31 ± 0.089
17,SIDDHPYNLNLFPNELY [RPC31],2.69 ± 0.088
18,SIDFRTYRCSIKNLPAD [SRB2],2.19 ± 0.07
19,SIGRTAQGKEFGVTKAR [RPL17A],3.05 ± 0.096
20,SIMPDLYFYRDPEEVEQ [RPS0A],2.94 ± 0.063
21,SINKNNKEMHTDLGKDI [SSN2],3.21 ± 0.12
22,SINVHSNNITSGLNRAI [RET1],3.24 ± 0.052
23,SIRAEAVAASSTKTGTP [POP1],3.08 ± 0.077
24,SKATGAPSANQGDEALS [RTT102],3.13 ± 0.1
25,SKDLRSVWKPIAAIIGR [IRR1],2.75 ± 0.049

row,Sequence,protein stability index
1,SKEWFQLDDEDFDLLNK [FAS1],3.28 ± 0.084
2,SKKSTITVRYWLNGKMD [RGR1],2.28 ± 0.2
3,SKLSLSRTDAVRCKDCG [RPC10],1.85 ± 0.13
4,SKMGAPWCVKPEYLAMY [ITC1],3.1 ± 0.043
5,SKPSTASPSAHTSSSDG [RPN4],2.66 ± 0.05
6,SKQLSLEEKKKRPNNKT [IRR1],2.21 ± 0.15
7,SKSAPSKKISNTAAALV [YAR002W/NUP60],3.12 ± 0.041
8,SKSENPVLSTIAFLVGL [SWI3],2.26 ± 0.1
9,SKTHKTVSRAYGGSRCA [RPL34A],2.82 ± 0.064
10,SKVVDDMPSLRLIDLSG [GRR1],2.72 ± 0.056
11,SKYYPGVIIKVEESGEH [SNU114],2.28 ± 0.08
12,SLCTVWKPNPSYDVENV [SRB5],2.08 ± 0.19
13,SLDTSASTINGASIIQV [YML103C/NUP188],1.29 ± 0.12
14,SLEGCVEMAWIMGFISY [FAS2],2.35 ± 0.086
15,SLEMVPKDTSAATMTSA [RGR1],2.73 ± 0.088
16,SLFQLSKLGKNLQTVHF [GRR1],1.96 ± 0.06
17,SLGIRPCLRKYEEFRDV [RRP43],3.21 ± 0.18
18,SLKKVDEIKAQRKEIKD [SMC4],3.29 ± 0.16
19,SLLAMHKHNIMKNENAN [CDC53],2.82 ± 0.072
20,SLLERHIPRLIPKQLLD [YJL039C/NUP192],1.23 ± 0.095
21,SLLSLVGHLSILPQQSK [ECM29],1.94 ± 0.058
22,SLQDLIYKRGQAGVTKA [SMC2],1.85 ± 0.15
23,SLQDSIIKQENFNSVND [SSN2],2.48 ± 0.078
24,SLQSSSQTQLENANAAN [MED2],2.64 ± 0.091
25,SLSVVAGKWSSKYLIKQ [ECM29],2.15 ± 0.17

row,Sequence,protein stability index
1,SLTDVAFFTYDAGVTFN [ECM29],2.82 ± 0.063
2,SLTRDFEQCCKEKKELQ [YIL149C/MLP2],3 ± 0.1
3,SLVALGIDPQDLKKLNL [CDC53],2.79 ± 0.049
4,SLYIYYLIKLLGFEVKD [SIR2],2.31 ± 0.079
5,SMILEAISTDKINPFGF [RRI2],2.59 ± 0.12
6,SMILGVAASIIPFPDHN [RPB2],2.27 ± 0.21
7,SMINSVSPTNVMGTPLT [PGD1],2.73 ± 0.042
8,SMKMELLKKELLTIEPK [SMC2],2.8 ± 0.07
9,SMNKELIAIVSKLLQTT [NUT1],2.28 ± 0.14
10,SMTAVPKPLKFLRPTYP [RPN1],1.85 ± 0.069
11,SNASQMGNTGSGGYDNA [RPB3],3.52 ± 0.2
12,SNDLDKFFQKKIHLYEK [YGL172W/NUP49],1.96 ± 0.061
13,SNELIEHFSHFGHIMED [YDL088C/ASM4],2.94 ± 0.053
14,SNESQNGKDSEIMYTGV [SMC3],3.03 ± 0.19
15,SNGLLSIVLLLLSQFGI [YML103C/NUP188],1.41 ± 0.18
16,SNIMSDSKKIKVDSPDD [GAL11],3.03 ± 0.072
17,SNISDEKSRISERDSKD [YMR129W/POM152],2.87 ± 0.075
18,SNKSNSTNESNKSISDE [SSN2],3.05 ± 0.069
19,SNNELVRTNTLTKAAIV [RPS8A],2.724 ± 0.022
20,SNQERCHDEGNDMLQRN [RRI1],3.35 ± 0.098
21,SNSMDRSSSASNEFVPN [SWI1],2.65 ± 0.046
22,SNSNNNGNKDSSFNFNK [SWI1],3.13 ± 0.04
23,SNTMYSVRLFSFLDPLN [YJL039C/NUP192],1.83 ± 0.063
24,SPAGKYKRQKSSLLYTY [ESC2],1.17 ± 0.11
